One series relates to LHVA-3 PRRS virus. Briefly: MTT assay, in vitro protection of PAMs or MARC-145 cells from LHVA-3 infection. In kind it is cell-based, PRRSV. The note with it: for protective effect when added after virus incubation: FIG. 9d. How it is done:
PAMs or MARC-145 cells were plated in 96 well plates (7×10^4/well) one day prior to the assay. […] Following infection, cells were incubated in growth medium at 37° C. for 72 hours. MTT assay was performed by adding 4 mg/ml MTT (3-[4,5-Dimethylthiazol-2-yl]-2,5-diphenyltetrazolium bromide dissolved in PBS to the cell cultures and incubation at 37° C. for 3 hours. Plates were then centrifuged at 800×g for 10 min. Supernatants were aspirated and the formazan dye was dissolved in 150 μl/well of isopropyl alcohol, and O.D. values were determined with an ELISA reader at 570 nm.
In Vitro Viral Protection Prior to Viral Infection PAMs or MARC-145 cells were plated on 96 well plates (7×10^4/well) 24 hours prior to the experiment. Each well was washed twice with DPBS prior to treating the cells with various amounts of A505 (12.5 to 2000 pmole) at 37° C. for the indicated time points. […] Following incubation, cells were transferred to growth medium and incubated at 37° C. for 72 hours. Thereafter an MTT assay was implemented as described.
In Vitro Viral Protection Following Viral Infection—PAMs or MARC-145 cells were plated on 96 well plates (7×10^4/well) 24 hours prior to viral infection. Viral infection was effected as described above. Infected cells were gently washed with DPBS for 3 times. Cells were then treated with various amounts of A505 (12.5 to 2000 pmole) for 1 hour at 37° C. Following incubation, cells were transferred to growth medium and incubated at 37° C. for 72 hours. Thereafter an MTT assay was implemented as described.
For orientation: Formazan colour is commonly taken as a measure of viable cells.

The next series deals with MARC-145 cells. The note with it: no virus; FIG. 10c.
For series [1], the system named is M-S-S-GP5 peptidic complex. Nature of the series: ELISA reverse screening: binding to M-S-S-GP5 peptidic complex, type 2. Particulars: type 2 PRRSV complex. The method, then: ssDNA aptamers were denatured at 80° C. for 10 min and then cooled on ice for 10 min. Aptamers (30 nmole) were mixed with 25 μg of M-S-S-GP5 peptidic complex (further described in Example 6 below) in 500 μl selection buffer (50 mM Tris-HCl; pH 7.4, 5 mM KCl, 100 mM NaCl, 1 mM MgCl2 tRNA, 0.2% BSA) at 37° C. for 30 min. Aptamer-peptide complex was purified by adding the 25 μl Ni-NTA superflow and amplified by PCR using primers directed to the common T3 sequences in the aptamer library, and 3′-primer (i.e. -[…]-3′). SELEX was repeated 3 times, following which amplified nucleotides were transformed into E. coli. PCR conditions for SELEX included 5 min 95° C./1 min 95° C./1 min 55° C./1 min 72° C./10 min 72° C. and 100 pmole of each primer.
Selected ssDNA molecules from each individual clone were biotinylated using the B-T3 which is same sequence with 5′ primer (T3 primer), and Klenow fragment (2 unit/ml). To prepare single stranded biotin conjugated CoocSeq5 aptamer for the reverse screening, T3 Primer was Biotin labelled. A 96-well flat bottom ELISA plate was prepared by coating each well with 100 μl of streptavidin (100 μg/ml) diluted in 0.1 M NaHCO3 following by a 37° C. overnight incubation. Following several washings with PBS, wells were blocked with 200 μl of PBS containing 1% BSA for 2 hours at room temperature and subsequent washing three times with PBS-T (10 mM PBS containing 0.05% (v/v) Tween-20). […]
High binding capacity ELISA plates (Immunoplate, Nunc) were coated with 100 μl allantoic fluid containing 500 TCID50 of various PRRS virus strains diluted in phosphate buffered saline (PBS) by incubating at 4° C. overnight. […] Following this incubation period, plates were washed five times in PBS-T and bound antibodies were detected using horseradish peroxidase labelled goat anti-mouse IgG conjugates (HRP). […] Reaction was terminated with 50 μl of 2M H2SO4, plates were read with a multichannel spectrophotometer at 570 nm.

A further series relates to LHVA-93-3 PRRS virus. Briefly: In-vivo lung virus titer, LHVA-93-3, comparison with control oligonucleotide and Tilmicosin (Example 4). Also on record: species or system swine. Particulars: intra-nasal. How it is done:
Swine were inoculated intranasally with sub-lethal infectious fluid containing 40TCID50/ml PRRS virus (LHVA-93-3) with or without 2.5 nmole A505 aptamer for different time intervals. Pig body weight was monitored for 2 weeks. Viral titer in the lungs was determined by the CPE titration method (OIE Terrestrial Manual—May 2015, Chapter 2.8.7—Porcine Reproductive and Respiratory Syndrome, section 1.1.3). Other pigs were sacrificed 6 days following viral inoculation and lungs were removed and homogenized in PBS 0.1% BSA (10% w/v). Following homogenization, samples were centrifuged to remove debris and stored at −80° C.
The cells/viruses were incubated for 2-5 days and observe daily for a CPE. At day 2, seed macrophages in new microtitre plates. Fifty (50) μl of the supernatants were transferred from the plates of the first passage to the corresponding wells of the freshly seeded plates (second passage). The wells were incubated for 2-5 days and observed daily for a CPE. The results of the CPE assays were presented as log TCID50.
Tilmicosin (Pulmotil®) was purchased from Eli Lilly (Elanco®), Canada.
Were implemented as described hereinabove. A dose of 15 ug/Kg of A505 was used.
The ability of the A505 aptamer to inhibit PRRSV infection was also compared to that of one of the currently available “anti-PRRSV” drugs, the antibiotic Tilmicosin. To this end, both A505 and Tilmicosin were administered once, together with the virus, using the intra-nasal route. As is shown in Table 2 below, a dose of 60 mg/pig of Tilmicosin (1 mg/kg body weight) reduced virus titer by 0.42 log TCID50, representing a 2.6-fold reduction in virus burden. This is in comparison to a reduction by 1.21 log TCID50 affected by A505 in this particular experiment (over 10 fold reduction in virus burden).

Several values for one entry are separate records, joined by “and”; a condition that tells them apart may be missing. Identical values can stand only once. Entries after “also recorded” stand apart in the source; their conditions may differ.

B1: A505: ssDNA aptamer binding type 2 PRRSV M-S-S-GP5 complex (nucleic acid)
DNA: GGGCGACCCTGAAGAGTTTGTAATCTGCGATTTTAAAGTTGAGTCGTCGCGAAACGGTGAAAGCCGTAGGTTGCCC
modifications: DNA, backbone and methylation of C not given here
For the molecule B1, the “survival rate of cells pre-incubated with aptamer then washed before infection” value in the series with LHVA-3 PRRS virus (500 pmole for 30 min or 60 min, repeated washing, then virus, FIG. 9c) is “no significant difference between the survival rate of non-treated and treated cells”. For the same molecule, the “protection against infection of the cells” value in the series on LHVA-3 PRRS virus (500 pmole, LHVA-3, compared to non-infected MARC-145 cells, FIG. 9b) is on record as about 60%. For the same molecule, the “protective effect when added after virus incubation” value was “highly significant difference” in the series on LHVA-3 PRRS virus (500 TCID50 LHVA-93-3 for 30 min prior to 500 pmole aptamer, vs infected cells) and “not significant” with LHVA-3 PRRS virus (500 TCID50 LHVA-93-3 for 60 min prior to 500 pmole aptamer). In addition, in the series on LHVA-3 PRRS virus (cells treated with aptamer prior to viral infection, FIG. 9a), the virus-associated cell-death result was “significant reduction in virus-associated cell-death”. Also, the “morphology of cells treated with aptamer alone” value with MARC-145 cells is listed as “did not affect the morphology of the cells”. The “binding to the M-S-S-GP5 complex/heterodimer” value in series [1] is given as “highly significant differences from the control ssDNA; also recorded: binding capacity to the M-S-S-GP5 complex; also recorded: found to bind the M-S-S-GP5 heterodimer”. The “Reduction Factor” value in the series with LHVA-93-3 PRRS virus (Table 2, administered once with the virus) turned out to be 17.1. Also, in the series on LHVA-93-3 PRRS virus (administered once together with the virus, Tilmicosin 60 mg/pig (1 mg/kg), A505 15 ug/Kg), the “Δ (log TCID50), reduction of virus titer” value was 1.21 log TCID50 and 1.23 log TCID50. For the same molecule, in the series on LHVA-93-3 PRRS virus (administered once with the virus), the “reduction in virus burden” value is given as “over 10 fold”.

Values taken from US11001846B2, “Aptamers, nucleic acid molecules, polynucleotides, synthetic antibodies compositions for detecting PRRS viruses and treating PRRS virus infection” (AEROVIRUS TECHNOLOGIES INC., priority 2015, dated 2021).
